Experiments:
[1] = molecular target: GST-ATF2 (substrate of kinase assays, residues not stated) (Homo sapiens (Human)) (UniProt P15336)
[2] = molecular target: GST-EGF-R (residues 647-688) (Homo sapiens (Human)) (UniProt P00533)
[3] = molecular target: GST-IκB (Schistosoma japonicum (Blood fluke)) [GST: P08515]

With “GST-p38 MAP kinase (from UniProt Q16539) (enzyme)” as the substance, how does the relative phosphorylation (PhosphorImager) (relative phosphorylation) [1] read?
Its relative phosphorylation (PhosphorImager) (relative phosphorylation) is 1.

What about the relative phosphorylation (PhosphorImager) (relative phosphorylation) [2] of the same substance?
The relative phosphorylation (PhosphorImager) (relative phosphorylation) was 0.04.

What about the relative phosphorylation (PhosphorImager) (relative phosphorylation) [3] of the same substance?
The relative phosphorylation (PhosphorImager) (relative phosphorylation) was 0.001.

And the relative phosphorylation (PhosphorImager) (relative phosphorylation) (MBP)?
Its relative phosphorylation (PhosphorImager) (relative phosphorylation) is 0.23.

— US20030129606A1
